Values joined by “and” are separate entries in the source; they are usually repeats but may differ in a detail not shown here. Equal entries are not always repeated.
B1: D163A|D164A|D165A|G166A|D167A|D168A, Q72SM7 (parent)
chain: MKKLSILAISVALFASITACGAFGGLPSLKSSFVLSEDTIPGTNETVKTLLPYGSVINYYGYVKPGQAPDGLVDGNKKAYYLYVWIPAVIAEMGVRMISPTGEIGEPGDGDLVSDAFKAATPEEKSMPHWFDTWIRVERMSAIMPDQIAKAAKAKPVQKLDDDDDGDDTYKEERHNKYNSLTRIKIPNPPKSFDDLKNIDTKKLLVRGLYRISFTTYKPGEVKGSFVASVGLLFPPGIPGVSPLIHSNPEELQKQAIAAEESLKKAASDATK

Variants of: B1
Details: Leptospira interrogans serogroup Icterohaemorrhagiae serovar copenhageni (strain Fiocruz L1-130); pH 8; Thermal; CD; Tris-HCl; KCl; structure 3FRL; whole UniProt chain shown

Variant	Tm	change of melting temperature, mutant - wild type (higher = more stable)
MKKLSILAISVALFASITACGAFGGLPSLKSSFVLSEDTIPGTNETVKTLLPYGSVINYYGYVKPGQAPDGLVDGNKKAYYLYVWIPAVIAEMGVRMISPTGEIGEPGDGDLVSDAFKAATPEEKSMPHWFDTWIRVERMSAIMPDQIAKAAKAKPVQKLDDAAAAAATYKEERHNKYNSLTRIKIPNPPKSFDDLKNIDTKKLLVRGLYRISFTTYKPGEVKGSFVASVGLLFPPGIPGVSPLIHSNPEELQKQAIAAEESLKKAASDATK [D163A D164A D165A G166A D167A D168A]	51 °C and 52 °C	
MKKLSILAISVALFASITACGAFGGLPSLKSSFVLSEDTIPGTNETVKTLLPYGSVINYYGYVKPGAAPDGLVDGNKKAYYLYVWIPAVIAEMGVRMISPTGEIGEPGDGDLVSDAFKAATPEEKSMPHWFDTWIRVERMSAIMPDQIAKAAKAKPVQKLDDDDDGDDTYKEERHNKYNSLTRIKIPNPPKSFDDLKNIDTKKLLVRGLYRISFTTYKPGEVKGSFVASVGLLFPPGIPGVSPLIHSNPEELQKQAIAAEESLKKAASDATK [Q67A]		0 °C
MKKLSILAISVALFASITACGAFGGLPSLKSSFVLSEDTIPGTNETVKTLLPYGSVINYYGYVKPGQAPDGLVDGNKKAYYLYVWIPAVIAEMGVRMISPTGEIGEPGDGDLVSDAFKAATPEEKSMPHWFDTWIRVERMSAIMPDQIAKAAKAKPVQKLDDDDDGDDTYKEERHNKYNSLTRIKIPNPPKSFDDLKNIDTKKLLVRGLYRISFTTYKPGEVKGSFVASVGLLFPPGIPGVSPLIHANPEELQKQAIAAEESLKKAASDATK [S247A]		0 °C and -1 °C
